± gives the standard deviation of the averaged measurements.
B1: library; a variant is named by its letters at N, in order (parent)
chain: GCUGUCACCGAGAAACUGUGAAGUAUAUCUUAAACCUGGGCACUUAAAAGAUAUAUGGAGUUAGUAGUGCAACCUGCUCGGUCUGAUGAGUCCNNNNNNGGACGAAACAGC

Assays:
cyclic di-GMP [1] = variants of: B1; assay: normalized RNA/DNA level without ligand (relative to sTRSVctl = 100) (log10 (% of sTRSVctl)); HEK293T; ligand: cyclic di-GMP (c-di-GMP-II aptamer); higher = less ribozyme self-cleavage, higher mRNA level; conditions: reporter: mCherry (pCS4076), ligand present: no
Summary of the method: (§1)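 Ribozyme switch library plasmids with mCherry reporters (eGFP in certain ligand experiments) went into HEK293T cells at 4 µg per 6-well well. Where ligand was used, it was applied 1 h before transfection, and total RNA was extracted with EDTA 72 h later for reverse transcription, amplification, barcoding and sequencing. RNA level is the RNA-to-DNA read ratio normalized to a spiked-in non-cleaving sequence or to the leading sequences, then scaled and log-transformed. Scaling was ×100 with log10, the leading set comprised 25 sequences, and the cutoff was ≥100 DNA reads.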

cyclic di-GMP [2] = variants of: B1; assay: normalized RNA/DNA level with ligand (relative to sTRSVctl = 100) (log10 (% of sTRSVctl)); HEK293T; ligand: cyclic di-GMP (c-di-GMP-II aptamer); ligand concentration (+) RNA-Seq: 1 mM; higher = less ribozyme self-cleavage, higher mRNA level; conditions: reporter: mCherry (pCS4076), ligand present: yes
Summary of the method: as §1

| Variant | normalized RNA/DNA level without ligand (log10) (cyclic di-GMP [1]) | normalized RNA/DNA level with ligand (log10) (cyclic di-GMP [2]) |
| --- | --- | --- |
| GCCACU | 1.684 ± 0.016 | 1.86 ± 0.12 |
| CAUCGG | 1.78 ± 0.048 | 1.84 ± 0.12 |
| AAGGUC | 1.61 ± 0.034 | 1.75 ± 0.077 |
| GAUAAG | 1.54 ± 0.036 | 1.72 ± 0.1 |
| UCGCUU | 1.66 ± 0.018 | 1.84 ± 0.11 |
| GAACGG | 1.703 ± 0.0094 | 1.78 ± 0.082 |
| UACUGC | 1.712 ± 0.0056 | 1.83 ± 0.13 |
| CGUAUC | 1.58 ± 0.045 | 1.76 ± 0.098 |
| AAUCUG | 1.62 ± 0.031 | 1.8 ± 0.061 |
| CGAAUC | 1.6 ± 0.043 | 1.78 ± 0.11 |
| AUGAAU | 1.53 ± 0.055 | 1.72 ± 0.024 |
| CAGGGC | 1.73 ± 0.044 | 1.86 ± 0.16 |
| UACUCC | 1.76 ± 0.035 | 1.9 ± 0.14 |
| UGCUAG | 1.71 ± 0.031 | 1.9 ± 0.048 |
| CGCCCG | 1.756 ± 0.0093 | 1.87 ± 0.14 |
| GGGAUA | 1.54 ± 0.19 | 1.66 ± 0.044 |
| ACCCGG | 1.7 ± 0.022 | 1.86 ± 0.099 |
| AUAAAC | 1.647 ± 0.0018 | 1.8 ± 0.13 |
| UUGCAC | 1.75 ± 0.024 | 1.85 ± 0.11 |
| UUAAAC | 1.7 ± 0.057 | 1.8 ± 0.097 |
| GGGCCC | 1.92 ± 0.07 | 1.99 ± 0.056 |
| UAAAGU | 1.54 ± 0.076 | 1.77 ± 0.048 |
| CAGUGA | 1.52 ± 0.043 | 1.7 ± 0.12 |
| UAGCCG | 1.79 ± 0.063 | 1.93 ± 0.12 |
| AGCAAG | 1.51 ± 0.09 | 1.68 ± 0.079 |
| CCAUGA | 1.52 ± 0.033 | 1.72 ± 0.087 |
| GGUUCU | 1.66 ± 0.044 | 1.77 ± 0.083 |
| CACGCU | 1.722 ± 0.0093 | 1.84 ± 0.12 |
| UGAGCC | 1.84 ± 0.02 | 1.91 ± 0.14 |

From the supplement of paper PMC6757056
